Measurements from article PMC5461336, “Non-canonical Glucocorticoid Receptor Transactivation of gilz by Alcohol Suppresses Cell Inflammatory Response”.

biological target: Glucocorticoid receptor (Hu-GR), unliganded (human, UniProt P04150 1-777); assay: EMSA; no glucocorticoid; GR 40 ng (0.5 pmol), probe 0.5 ng (0.05 pmol), 1 ug poly(dI-dC), 25 ul; 6% non-denaturing PAGE; buffer, salt, pH and temperature not stated; conditions: protein: recombinant; chain copies: 2; label: 32P 5'-end; blunt
Sequence (P04150 whole entry): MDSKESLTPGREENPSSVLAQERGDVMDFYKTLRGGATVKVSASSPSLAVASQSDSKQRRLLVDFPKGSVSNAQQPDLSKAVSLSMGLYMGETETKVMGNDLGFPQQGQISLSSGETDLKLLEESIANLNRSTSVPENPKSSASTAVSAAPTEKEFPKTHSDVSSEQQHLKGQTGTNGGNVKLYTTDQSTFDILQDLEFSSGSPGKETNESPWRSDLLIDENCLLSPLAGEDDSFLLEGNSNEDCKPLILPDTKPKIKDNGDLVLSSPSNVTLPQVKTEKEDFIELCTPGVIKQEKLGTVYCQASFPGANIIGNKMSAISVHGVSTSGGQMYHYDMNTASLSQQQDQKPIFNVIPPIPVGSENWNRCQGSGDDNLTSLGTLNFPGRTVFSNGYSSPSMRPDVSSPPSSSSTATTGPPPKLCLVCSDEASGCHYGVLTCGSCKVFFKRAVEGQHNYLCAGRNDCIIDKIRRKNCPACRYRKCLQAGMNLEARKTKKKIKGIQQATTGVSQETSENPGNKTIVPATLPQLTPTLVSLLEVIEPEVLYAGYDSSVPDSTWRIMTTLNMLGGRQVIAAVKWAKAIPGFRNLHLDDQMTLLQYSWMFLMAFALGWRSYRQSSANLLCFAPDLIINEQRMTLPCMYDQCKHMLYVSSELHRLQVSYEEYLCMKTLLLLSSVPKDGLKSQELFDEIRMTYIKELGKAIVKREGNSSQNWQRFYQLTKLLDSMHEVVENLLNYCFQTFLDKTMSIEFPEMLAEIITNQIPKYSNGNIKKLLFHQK

Row | Binder | binding result
1 | Mut-GRE1 (dsDNA) DNA 1: CAAACTAGCGCCAGGTCTTTACTGAATGCCC DNA 2: GGGCATTCAGTAAAGACCTGGCGCTAGTTTG | no binding
2 | Wt-GRE1 (dsDNA) DNA 1: CAAACTAGCGCTGTTCTTTACTGAATGCCC DNA 2: GGGCATTCAGTAAAGAACAGCGCTAGTTTG | binds
3 | Mut-GRE2 (dsDNA) DNA 1: GGTGGAACCCAAGAGCACCCTTTGGTCCTG DNA 2: CAGGACCAAAGGGTGCTCTTGGGTTCCACC | no binding
4 | Wt-GRE2 (dsDNA) DNA 1: GGTGGAACCCAATGTTCTCCTTTGGTCCTG DNA 2: CAGGACCAAAGGAGAACATTGGGTTCCACC | binds
